Assay results published in US20190276557A1 (APROGEN KIC, published 2019).

Molecular target: recombinant protein carbonic anhydrase 12 (R&D Systems) (Homo sapiens (Human), UniProt O43570 25-291, limits assumed)
Sequence (O43570 25-291 limits assumed): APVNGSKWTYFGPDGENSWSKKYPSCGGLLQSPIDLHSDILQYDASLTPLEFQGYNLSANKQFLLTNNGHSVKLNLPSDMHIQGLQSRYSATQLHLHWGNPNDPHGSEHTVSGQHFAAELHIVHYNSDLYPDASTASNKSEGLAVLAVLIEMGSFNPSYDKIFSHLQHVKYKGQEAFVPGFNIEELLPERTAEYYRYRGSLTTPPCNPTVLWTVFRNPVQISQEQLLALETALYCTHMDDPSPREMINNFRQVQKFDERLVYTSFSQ

B1: clone ID 1 (phage displayed scFv) (scFv)
chain: EVQLVESGGGLVQPGGSLRLSCAASGYSYTDYNIYWVRQAPGKGLEWVGYIDPANGDTTYNQKFKGRATISVDKSKNTAYLQMNSLRAEDTAVYYCSRPIYYGAYWYFDVWGQGTLVTVSSDIQMTQSPSSLSASVGDRVTITCRASSPVTYMHWYQQKPGKAPKPWIYATSSLAPGVPSRFSGSGSGTDFTLTISSLQPEDFATYYCQQWSSNPLTFGQGTKVEIK
**Q.** For B1, which “ELISA signal relative to the 4B4 chimeric antibody” value is on record?
**A.** Its value is 1.5 times.
